Data from publication PMC8778164, “Towards Complete Tumor Resection: Novel Dual-Modality Probes for Improved Image-Guided Surgery of GRPR-Expressing Prostate Cancer” (Pharmaceutics, 2022).

Legend:
[1] = Stability in PBS at 37 °C (iTLC); format: physicochemical; settings: intact labeled ligand after incubation at 37 °C in PBS, n = 1
Procedure: Stability in PBS was determined by incubating 20 µL of the labeled compounds (∼11 MBq) in PBS (80 µL) at 37 °C. Radiochemical purity was determined by iTLC at 30 min, 1 h, 2 h and 4 h. Stability in the serum was carried out by adding 70 µL of the labeled compound (∼35 MBq) to 330 µL of mouse serum (Merck, Haarlerbergweg, The Netherlands). The mixture was incubated at 37 °C. At different time points (30 min, 1 h, 2 h and 4 h), an aliquot of the mixture (50 µL) was added to 50 µL ACN. The vial was vortexed and centrifuged at 10,000 rpm for 20 min and the supernatant was analyzed by iTLC.

[2] = test system: PC-3-xenograft Balb/c nu/nu mice; assay: Ex vivo optical (fluorescence, IVIS) imaging of organs; format: in vivo, mouse; settings: ex vivo after dissection, ex/em 640/680 nm
Procedure: Seven-week-old male Balb/c nu/nu-specific and opportunistic pathogen-free (SOPF) mice (Janvier Labs, Le Genest-Saint-Isle, France) were housed in individually ventilated cages, with 4 mice per cage. Upon arrival, mice were acclimated for 1 week, with access to food and water ad libitum. Mice were subcutaneously inoculated on the right shoulder with PC-3 cells (5 × 10^6 cells suspended in 100 µL of 1/3 Matrigel (Corning Inc., Corning, NY, USA) and 2/3 Hank’s balanced salt solution (Gibco). PC-3 xenografts were allowed to grow for 3 weeks. Tumor sizes were 391 ± 173 mm^3 at the start of the studies. All animal experiments were approved by the Animal Welfare Committee of the Erasmus MC and were conducted in agreement with institutional guidelines (license number: AVD101002017867, 28 September 2017).
Before gamma counter measurements, the tumor half, pancreas, kidneys, lungs, small intestine, large intestine, liver, muscle, and bone were placed in two petri dishes and ex vivo optical imaging was performed with the IVIS Spectrum system (Perkin Elmer, Waltham, MA, USA) using the following settings for all measurements: FOV 12.6 cm, medium binning, f2, 0.5 s exposure with an excitation/emission filter of 640 nm/680 nm. Living Image version 4.5.2 software (Perkin Elmer) was used to perform data analysis by drawing a region of interest around the organ/tissue to quantify the radiant efficiency {(photons/second/cm^2/steradian)/(μW/cm^2)}.

[3] = In vivo SPECT/CT imaging, VOI quantification; settings: male, Balb/c nu/nu, mouse, tumor and kidneys (in vivo VOIs), iv, total radioactivity; from SPECT VOI %IA/mL, 2 h p.i., i.v., non-blocked, n = 3; read-out: Tumor-to-kidney ratio (SPECT)
Procedure: Seven-week-old male Balb/c nu/nu-specific and opportunistic pathogen-free (SOPF) mice (Janvier Labs, Le Genest-Saint-Isle, France) were housed in individually ventilated cages, with 4 mice per cage. Upon arrival, mice were acclimated for 1 week, with access to food and water ad libitum. […]
Mice (n = 3 per probe) were intravenously injected in the tail vein with 200 µL of Kolliphor® HS 15 (Merck, Haarlerbergweg, The Netherlands) in PBS (0.06 mg/mL) containing [^111In]In-12 (13.40 ± 0.76 MBq, ~670 pmol) or [^111In]In-15 (17.50 ± 1.78 MBq, ~875 pmol). […] The CT and registered, attenuation-corrected SPECT images were analyzed using PMOD (PMOD 3.9, Zurich, Switzerland) and quantification was performed by placing volumes of interest (VOIs) around the tumors and kidneys. An Eppendorf tube filled with a solution of indium-111 of a known activity was measured to determine the calibration factor. The total activity measured in the VOI was divided by the volume of all VOI pixel values and multiplied by the calibration factor to obtain the percentage of injected activity per volume unit (%IA/mL).

[4] = Distribution coefficient (LogD7.4), shake-flask method; format: physicochemical; settings: n-octanol/PBS pH 7.4, n = 3; read-out: Log D7.4
Procedure: Distribution coefficients (LogD7.4) for the ^111In-labeled compounds were determined by a shake-flask method. The experiments were performed in triplicate for each radioligand. A sample containing the radioligand (0.5–2.0 MBq) was dissolved in 1 mL solution of phosphate-buffered saline (0.01 M, pH 7.4) and n-octanol (v:v = 1:1). The vials were vortexed vigorously and then centrifuged at 10,000 rpm for 3 min, for phase separation. Samples (10 μL) of each phase were taken out and analyzed using a gamma counter. LogD7.4 values were calculated, using the following equation: LogD7.4 = log {(counts in n-octanol phase)/(counts in PBS phase)}.

[5] = blocked with 150 nmol unlabeled NeoB, n = 1
[6] = non-blocked, n = 3, listed as [111In]In‐12
[7] = non-blocked, n = 3, listed as [111In]In‐15

SMILES	Stability in PBS (%) 30 min [1]	Stability in PBS (%) 1 h [1]	Stability in PBS (%) 2 h [1]	Stability in PBS (%) 4 h [1]	Fluorescent signal, bone (average radiant efficiency) [2, 5]	Fluorescent signal, kidneys (average radiant efficiency) [2, 5]	Fluorescent signal, large intestine (average radiant efficiency) [2, 5]	Fluorescent signal, liver (average radiant efficiency) [2, 5]	Fluorescent signal, lungs (average radiant efficiency) [2, 5]	Fluorescent signal, muscle (average radiant efficiency) [2, 5]	Fluorescent signal, pancreas (average radiant efficiency) [2, 5]	Fluorescent signal, small intestine (average radiant efficiency) [2, 5]	Fluorescent signal, tumor (average radiant efficiency) [2, 5]	Fluorescent signal, bone (average radiant efficiency) ([2]; non-blocked, n = 3)	Fluorescent signal, kidneys (average radiant efficiency) ([2]; non-blocked, n = 3)	Fluorescent signal, large intestine (average radiant efficiency) ([2]; non-blocked, n = 3)	Fluorescent signal, liver (average radiant efficiency) ([2]; non-blocked, n = 3)	Fluorescent signal, lungs (average radiant efficiency) ([2]; non-blocked, n = 3)	Fluorescent signal, muscle (average radiant efficiency) ([2]; non-blocked, n = 3)	Fluorescent signal, pancreas (average radiant efficiency) ([2]; non-blocked, n = 3)	further results
CC(C)CC(CC(C)C)NC(=O)[C@H](Cc1c[nH]cn1)NC(=O)CNC(=O)[C@@H](NC(=O)[C@H](C)NC(=O)[C@H](Cc1c[nH]c2ccccc12)NC(=O)[C@H](CCC(N)=O)NC(=O)[C@@H](Cc1ccccc1)NC(=O)COCC(=O)Nc1ccc(CNC(=O)[C@H](CCCCNC(=O)CCOCCOCCOCCOCCNC(=O)OC2CCCC3C=NN=C(c4ccc(CNC(=O)CCCCC[N+]5=C(/C=C/C=C/C=C6N(C)c7ccc(S(=O)(=O)O)cc7C6(C)C)C(C)(C)c6cc(S(=O)(=O)[O-])ccc65)cc4)C3CC2)NC(=O)CN2CCN(CC(=O)O)CCN(CC(=O)O)CCN(CC(=O)O)CC2)cc1)C(C)C (stereo partly drawn) [[^111In]In-12, metal not drawn]	85.8%	80.1%	75.0%	73.1%	0.32 × 10^8 p/sec/cm^2/sr per µW/cm	5.42 × 10^8 p/sec/cm^2/sr per µW/cm	0.47 × 10^8 p/sec/cm^2/sr per µW/cm	2.42 × 10^8 p/sec/cm^2/sr per µW/cm	2.88 × 10^8 p/sec/cm^2/sr per µW/cm	0.76 × 10^8 p/sec/cm^2/sr per µW/cm	0.66 × 10^8 p/sec/cm^2/sr per µW/cm	0.44 × 10^8 p/sec/cm^2/sr per µW/cm	1.67 × 10^8 p/sec/cm^2/sr per µW/cm	0.40 ± 0.11 × 10^8 p/sec/cm^2/sr per µW/cm	9.41 ± 0.92 × 10^8 p/sec/cm^2/sr per µW/cm^2	0.68 ± 0.19 × 10^8 p/sec/cm^2/sr per µW/cm	2.20 ± 0.09 × 10^8 p/sec/cm^2/sr per µW/cm	1.93 ± 0.18 × 10^8 p/sec/cm^2/sr per µW/cm	0.78 ± 0.08 × 10^8 p/sec/cm^2/sr per µW/cm	6.32 ± 0.50 × 10^8 p/sec/cm^2/sr per µW/cm^2	Fluorescent signal, small intestine (average radiant efficiency) ([2]; non-blocked, n = 3): 0.85 ± 0.30 × 10^8 p/sec/cm^2/sr per µW/cm; Fluorescent signal, tumor (average radiant efficiency) ([2]; non-blocked, n = 3): 4.31 ± 1.03 × 10^8 p/sec/cm^2/sr per µW/cm^2; Fluorescent signal, kidneys (average radiant efficiency) [2, 6]: 9.41 ± 0.92 × 10^8 p/sec/cm^2/sr per µW/cm; Fluorescent signal, pancreas (average radiant efficiency) [2, 6]: 6.32 ± 0.50 × 10^8 p/sec/cm^2/sr per µW/cm; Fluorescent signal, tumor (average radiant efficiency) [2, 6]: 4.31 ± 1.03 × 10^8 p/sec/cm^2/sr per µW/cm; tissue to tissue ratio at 2 h [3]: 0.47 ± 0.05; logD [4]: -1.66 ± 0.01
CC(C)CC(CC(C)C)NC(=O)[C@H](Cc1c[nH]cn1)NC(=O)CNC(=O)[C@@H](NC(=O)[C@H](C)NC(=O)[C@H](Cc1c[nH]c2ccccc12)NC(=O)[C@H](CCC(N)=O)NC(=O)[C@@H](Cc1ccccc1)NC(=O)CCOCCOCCOCCOCCNC(=O)[C@H](CCCCNC(=O)OC1CCCC2C=NN=C(c3ccc(CNC(=O)CCCCC[N+]4=C(/C=C/C=C/C=C5N(C)c6ccc(S(=O)(=O)O)cc6C5(C)C)C(C)(C)c5cc(S(=O)(=O)[O-])ccc54)cc3)C2CC1)NC(=O)CN1CCN(CC(=O)O)CCN(CC(=O)O)CCN(CC(=O)O)CC1)C(C)C (stereo partly drawn) [[^111In]In-15, metal not drawn]	83.0%	71.8%	67.0%	57.1%	0.55 × 10^8 p/sec/cm^2/sr per µW/cm	6.09 × 10^8 p/sec/cm^2/sr per µW/cm	0.49 × 10^8 p/sec/cm^2/sr per µW/cm	1.75 × 10^8 p/sec/cm^2/sr per µW/cm	2.93 × 10^8 p/sec/cm^2/sr per µW/cm	0.96 × 10^8 p/sec/cm^2/sr per µW/cm	1.17 × 10^8 p/sec/cm^2/sr per µW/cm	0.38 × 10^8 p/sec/cm^2/sr per µW/cm	1.47 × 10^8 p/sec/cm^2/sr per µW/cm	0.74 ± 0.24 × 10^8 p/sec/cm^2/sr per µW/cm	7.80 ± 0.92 × 10^8 p/sec/cm^2/sr per µW/cm^2	0.94 ± 0.28 × 10^8 p/sec/cm^2/sr per µW/cm	2.38 ± 0.21 × 10^8 p/sec/cm^2/sr per µW/cm	2.25 ± 0.70 × 10^8 p/sec/cm^2/sr per µW/cm	1.08 ± 0.16 × 10^8 p/sec/cm^2/sr per µW/cm	5.12 ± 1.93 × 10^8 p/sec/cm^2/sr per µW/cm^2	Fluorescent signal, small intestine (average radiant efficiency) ([2]; non-blocked, n = 3): 0.85 ± 0.04 × 10^8 p/sec/cm^2/sr per µW/cm; Fluorescent signal, tumor (average radiant efficiency) ([2]; non-blocked, n = 3): 4.66 ± 1.35 × 10^8 p/sec/cm^2/sr per µW/cm^2; Fluorescent signal, kidneys (average radiant efficiency) [2, 7]: 7.80 ± 0.92 × 10^8 p/sec/cm^2/sr per µW/cm; Fluorescent signal, pancreas (average radiant efficiency) [2, 7]: 5.12 ± 1.93 × 10^8 p/sec/cm^2/sr per µW/cm; Fluorescent signal, tumor (average radiant efficiency) [2, 7]: 4.66 ± 1.35 × 10^8 p/sec/cm^2/sr per µW/cm; tissue to tissue ratio at 2 h [3]: 0.49 ± 0.05; logD [4]: -1.75 ± 0.09
